Assay results published in the RNAGym collection of RNA variant scans (doi:10.7554/elife.90254).

B1: LINE1-full (parent)
chain: UACGUAGGUGGUUUUCCCCUGAUAGUGCUAAGGGGGCCUGGAAGUUUGGACUGGGCAGAGCUCAACACAGCGUGGCAAAGUGGCUGUGGCUAGACUGCCUCUCUGGAUUCCUCGUCACUCAGCAGGGCAUCUCUGAGAGAAAUGCC

Variants of: B1
Assay: self-cleavage, relative activity (ratio to wild type); higher = more cleavage; in vitro, sequencing; the parent is a self-cleaving ribozyme
Variant G97A A136G has a self-cleavage of 0.19.
Variant G97A A140G has a self-cleavage of 0.11.
In the case of G97A A142C, the self-cleavage is reported as 0.14.
Variant G97A A142G has a self-cleavage of 0.02.
Variant G97A C111U has a self-cleavage of 0.07.
Variant G97A U100A has a self-cleavage of 0.1.
With G97A U100C the self-cleavage was 0.33.
For G97A U109A, the self-cleavage was 0.07.
In the case of G97A U109C, the self-cleavage is reported as 0.05.
In the case of G97A U112A, the self-cleavage is reported as 0.16.
For G97A U132C, the self-cleavage was 0.11.
In the case of G97A U134G, the self-cleavage is reported as 0.06.
Variant G97A U143C has a self-cleavage of 0.16.
In the case of G97C, the self-cleavage is reported as 0.19.
For G97C U102C, the self-cleavage was 0.14.
Work on G97C U108A yielded a self-cleavage of 0.14.
Variant G97U has a self-cleavage of 0.06.
Work on G97U A140G yielded a self-cleavage of 0.07.
For G97U C123U, the self-cleavage was 0.03.
With G97U C145U the self-cleavage was 0.04.
Work on G97U G127A yielded a self-cleavage of 0.04.
For G97U U104A, the self-cleavage was 0.02.
G97U U108C showed a self-cleavage of 0.06.
Variant C98A A140G has a self-cleavage of 0.12.
Work on C98A A141G yielded a self-cleavage of 0.17.
C98A C101U gave a self-cleavage of 0.09.
In the case of C98A U102C, the self-cleavage is reported as 0.13.
Variant C98A U112C has a self-cleavage of 0.05.
Work on C98G U112C yielded a self-cleavage of 0.12.
Variant C98U A121G has a self-cleavage of 0.44.
C98U A121U showed a self-cleavage of 0.38.
Work on C98U A136G yielded a self-cleavage of 0.55.
Variant C98U A138G has a self-cleavage of 1.15.
C98U A141G gave a self-cleavage of 0.45.
Variant C98U A142U has a self-cleavage of 0.47.
In the case of C98U C146U, the self-cleavage is reported as 0.32.
C98U G105C showed a self-cleavage of 0.75.
For C98U U100G, the self-cleavage was 0.05.
Variant C98U U108C has a self-cleavage of 0.48.
C98U U112C showed a self-cleavage of 0.26.
With C98U U134C the self-cleavage was 0.3.
Variant C99A A129U has a self-cleavage of 0.46.
In the case of C99A A136G, the self-cleavage is reported as 0.99.
In the case of C99A U108C, the self-cleavage is reported as 1.2.
For C99A U109C, the self-cleavage was 0.41.
For C99A U119C, the self-cleavage was 0.82.
C99G A129G showed a self-cleavage of 0.3.
In the case of C99U A107G, the self-cleavage is reported as 0.83.
With C99U A141C the self-cleavage was 0.55.
For C99U A141G, the self-cleavage was 0.62.
In the case of C99U A142G, the self-cleavage is reported as 0.58.
In the case of C99U C145U, the self-cleavage is reported as 0.82.
C99U U112A gave a self-cleavage of 1.12.
In the case of C99U U112C, the self-cleavage is reported as 0.36.
In the case of C99U U119A, the self-cleavage is reported as 0.79.
With C99U U119C the self-cleavage was 0.96.
In the case of C99U U134A, the self-cleavage is reported as 0.37.
C99U U143A showed a self-cleavage of 0.39.
U100A showed a self-cleavage of 0.9.
Work on U100A A124G yielded a self-cleavage of 1.02.
With U100A A129G the self-cleavage was 1.49.
In the case of U100A A129U, the self-cleavage is reported as 1.25.
Work on U100A A136C yielded a self-cleavage of 1.05.
Variant U100A A142G has a self-cleavage of 0.77.
For U100A C103U, the self-cleavage was 0.44.
U100A C116U showed a self-cleavage of 0.4.
With U100A C133U the self-cleavage was 0.54.
U100A C146G showed a self-cleavage of 1.26.
U100A G125A gave a self-cleavage of 1.05.
For U100A G137A, the self-cleavage was 0.85.
In the case of U100A U102A, the self-cleavage is reported as 0.49.
Variant U100A U102C has a self-cleavage of 1.7.
U100A U104A showed a self-cleavage of 1.51.
Variant U100A U104C has a self-cleavage of 1.68.
U100A U108G gave a self-cleavage of 0.
U100A U115C gave a self-cleavage of 1.22.
In the case of U100A U119C, the self-cleavage is reported as 1.23.
U100A U132C showed a self-cleavage of 0.65.
For U100A U134A, the self-cleavage was 1.02.
With U100A U143A the self-cleavage was 0.91.
In the case of U100A U143C, the self-cleavage is reported as 0.86.
For U100C, the self-cleavage was 1.79.
Work on U100C A107G yielded a self-cleavage of 1.73.
With U100C A107U the self-cleavage was 1.21.
U100C A129U showed a self-cleavage of 1.92.
Work on U100C A136G yielded a self-cleavage of 1.91.
U100C A136U showed a self-cleavage of 1.73.
Work on U100C A138U yielded a self-cleavage of 1.51.
U100C A140G showed a self-cleavage of 1.79.
Variant U100C A140U has a self-cleavage of 1.82.
Variant U100C A141U has a self-cleavage of 1.08.
With U100C A142G the self-cleavage was 1.93.
With U100C C103A the self-cleavage was 0.85.
Work on U100C C103U yielded a self-cleavage of 1.65.
In the case of U100C C128U, the self-cleavage is reported as 1.58.
U100C C145U showed a self-cleavage of 2.29.
U100C C146A showed a self-cleavage of 1.75.
Variant U100C G105U has a self-cleavage of 2.13.
U100C G122C showed a self-cleavage of 2.12.
Work on U100C G122U yielded a self-cleavage of 1.76.
Work on U100C G125C yielded a self-cleavage of 1.89.
In the case of U100C G126U, the self-cleavage is reported as 1.37.
U100C G127C showed a self-cleavage of 2.48.
U100C G135A gave a self-cleavage of 1.74.
For U100C G139U, the self-cleavage was 2.03.
With U100C U102C the self-cleavage was 1.65.
In the case of U100C U104A, the self-cleavage is reported as 1.37.
Variant U100C U104C has a self-cleavage of 2.14.
For U100C U108C, the self-cleavage was 2.05.
U100C U112C showed a self-cleavage of 1.89.
U100C U115A showed a self-cleavage of 1.87.
With U100C U115C the self-cleavage was 2.98.
With U100C U119C the self-cleavage was 1.87.
Variant U100C U130C has a self-cleavage of 2.16.
Variant U100C U132C has a self-cleavage of 1.67.
Work on U100C U143C yielded a self-cleavage of 1.97.
Work on U100G yielded a self-cleavage of 1.24.
Work on U100G C113U yielded a self-cleavage of 1.49.
In the case of U100G C116U, the self-cleavage is reported as 1.61.
Work on U100G G114A yielded a self-cleavage of 1.77.
Work on C101A yielded a self-cleavage of 1.38.
Work on C101A A107G yielded a self-cleavage of 1.57.
With C101A A124G the self-cleavage was 0.98.
With C101A A129G the self-cleavage was 0.
In the case of C101A A129U, the self-cleavage is reported as 2.2.
In the case of C101A A141G, the self-cleavage is reported as 1.64.
In the case of C101A A142G, the self-cleavage is reported as 1.53.
In the case of C101A C113A, the self-cleavage is reported as 1.41.
In the case of C101A U132C, the self-cleavage is reported as 1.39.
With C101G the self-cleavage was 1.78.
In the case of C101U, the self-cleavage is reported as 1.39.
C101U A121G showed a self-cleavage of 1.72.
Variant C101U A136G has a self-cleavage of 1.8.
With C101U A138G the self-cleavage was 1.69.
In the case of C101U A141G, the self-cleavage is reported as 2.
For C101U G126A, the self-cleavage was 1.54.
C101U U102C gave a self-cleavage of 1.49.
In the case of C101U U115C, the self-cleavage is reported as 1.49.
In the case of C101U U119C, the self-cleavage is reported as 1.65.
For C101U U134C, the self-cleavage was 1.45.
Work on U102A yielded a self-cleavage of 1.21.
With U102A A107G the self-cleavage was 1.06.
In the case of U102A A107U, the self-cleavage is reported as 1.66.
U102A A121G gave a self-cleavage of 1.64.
U102A A124C gave a self-cleavage of 1.98.
In the case of U102A A124U, the self-cleavage is reported as 1.46.
U102A A136G gave a self-cleavage of 1.78.
For U102A A138G, the self-cleavage was 1.62.
U102A A140G showed a self-cleavage of 1.62.
With U102A A140U the self-cleavage was 1.42.
U102A A141G showed a self-cleavage of 1.42.
U102A A142U showed a self-cleavage of 1.5.
Work on U102A C113A yielded a self-cleavage of 0.97.
In the case of U102A C116U, the self-cleavage is reported as 0.97.
Work on U102A C120U yielded a self-cleavage of 1.65.
U102A C131U showed a self-cleavage of 1.26.
For U102A C145U, the self-cleavage was 1.04.
In the case of U102A C146U, the self-cleavage is reported as 0.99.
In the case of U102A G135A, the self-cleavage is reported as 1.47.
In the case of U102A U109A, the self-cleavage is reported as 1.03.
U102A U109C gave a self-cleavage of 1.31.
Variant U102A U112C has a self-cleavage of 0.96.
For U102A U115A, the self-cleavage was 1.43.
Work on U102A U119C yielded a self-cleavage of 2.01.
Work on U102A U130A yielded a self-cleavage of 1.28.
Variant U102A U130C has a self-cleavage of 1.89.
Work on U102C yielded a self-cleavage of 1.29.
